B1: FAM46D (parent)
chain: LELKFVSSLRRQFEFSVDSFQIVL
B2: HSP90AB1 (parent)
chain: QVANSAFVERVRKRGFEVVYMTEP

Variants of: B1
Assay: protein stability index of a GFP-peptide fusion (GPS, HEK-293T) (PSI 1-6); higher = more stable
Settings: c terminus: a fixed tail appended
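Also: lentivirally expressed fusions sorted by FACS into six bins by GFP to DsRed ratio, PSI derived from sequencing read proportions per bin multiplied by bin number.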

Protein stability index of substitutions, site by site:
E14: K 3.16 | Q 2.24 | L 2.84 | R 2.17 | Y 3.27 | A 3.98 | D 4 | T 4.77 | S 2.66 | P 3.67 | I 3.52 | G 3.4 | M 2.77 | W 2.46 | N 2.89 | C 3.17 | V 2.06
I22: G 3.17 | W 2.8 | M 3.31 | D 2.6 | N 3.28 | K 1.71 | V 3.07 | A 2.26 | L 2.7 | C 2.93 | E 2.65 | T 2.21 | F 3.23 | H 1.5 | Y 3.01 | S 2.36 | P 4.29 | R 2.04
L24: H 4.63 | E 3.4 | R 2.73 | N 2.39 | I 3.26 | W 5.02 | F 3.74 | Q 2.27 | P 2.58 | S 3.63 | M 2.73 | C 3.35 | K 2.35 | V 1.77 | A 2.78 | D 1.78 | Y 2.7 | G 2.6
S16: D 3.15 | H 2.69 | I 2.93 | R 3.43 | Y 2.83 | P 3.75 | A 3.32 | T 4.1 | V 3.91 | M 3.57 | E 2.89 | K 3.51 | F 2.79 | N 3.05 | C 3.91
D18: L 2.1 | F 2.06 | Q 3.71 | S 2.94 | C 2 | H 4.76 | W 3.27 | V 3.13 | K 3.6 | M 4.61 | Y 3.18 | E 1.74 | N 3.43 | G 2.54 | A 4.25 | R 3.4 | P 3.29 | I 3.49
F13: S 2.67 | V 3.73 | W 3.64 | T 3.34 | I 3.87 | L 3.36 | K 2.91 | N 2.82 | D 2.54 | R 3.23 | H 2.73 | C 4.36 | Y 1.76 | Q 2.84 | E 2.55
Q21: W 2.89 | D 2.69 | S 2.89 | T 2.68 | F 2.74 | P 2.71 | G 3.02 | Y 2.8 | N 2.75 | V 2.67 | M 2.78 | E 2.47 | R 3.02 | K 3.44 | C 3.58 | H 2.63 | I 3.59 | A 2.85 | L 2.24
F20: R 2.22 | T 1.62 | I 3.44 | D 2.94 | E 3.3 | L 2.59 | N 3.48 | Y 3.11 | K 3.31 | Q 1.61 | C 2.73 | H 2.62 | G 2.96 | S 2.55 | M 2.58 | P 3.04 | A 2.99 | W 3.5
F15: H 5.32 | M 2.58 | C 2.42 | E 3.22 | G 3.1 | W 3.57 | V 4.5 | L 3.69 | S 3.33 | I 4.07 | P 2.92 | R 2.68 | D 2.09 | N 4.46 | Q 3.16 | T 2.43 | K 2.13
Q12: T 2.42 | W 3.97 | Y 2.8 | V 3.44
V17: L 3.25 | R 3.4 | I 2.8 | D 4.26 | Y 1.51 | E 1.91 | S 2.19 | N 3.45 | F 2.88 | C 3.37 | P 2.44 | T 2.76 | K 2.76 | H 3.65 | M 4.44 | G 2.62 | W 4.01 | A 2.4
V23: R 2.76 | I 2.6 | Q 2.29 | N 3.11 | A 3.08 | G 1.94 | T 2.62 | W 3.15 | L 2.9 | S 2.88 | H 2.67 | Y 3.37 | P 2.14 | E 4.1 | F 1.98
S19: T 2.43 | G 3.42 | E 3.31 | P 2.18 | W 3.19 | F 3.6 | Y 2.75 | R 2.38 | M 4.08 | N 4 | C 2.44 | K 2.88 | V 2.12 | L 2.88 | A 3.69 | D 3.06 | H 3.92 | I 4.06

Variants of: B2
Assay: as above
Settings: c terminus: a fixed tail appended

Protein stability index of substitutions, site by site:
V2: T 2.41 | P 2.85 | A 2.87 | Q 2.58 | C 1.74 | R 2.6 | H 2.49 | N 2.75 | F 2.47 | W 1.94 | M 2.18 | Y 2.3 | S 2.69 | L 2.01 | I 2.52 | D 3.15 | G 2.59
A6: C 1.55 | W 1.55 | V 1.57 | K 2.32 | G 2.19 | L 2.09 | M 2.54 | Y 1.55 | H 2.43 | R 2.71 | I 1.68 | S 2.61 | E 2.86 | T 2.69 | P 2.81 | D 2.67 | F 1.73 | N 2.11
F7: R 2.75 | V 2.84 | K 3.03 | T 3.42 | E 3.48 | M 2.35 | S 2.32 | W 1.99 | Y 2.38 | H 3.24 | D 3.56 | P 3.28
S5: T 2.46 | F 1.76 | L 2.12 | A 2.24 | K 1.71 | E 2 | Y 2.17 | D 2.59 | R 1.77 | H 2.29 | V 2.22 | P 2.44 | W 1.97 | G 2.02 | N 2.26 | M 2.2
V8: C 2.92 | D 3.46 | G 2.91 | N 2.8 | M 2.49 | H 2.47 | A 2.33 | I 1.88 | P 2.48 | F 1.8 | L 1.96 | K 2.54
N4: K 1.96 | E 2.81 | S 2.21 | T 1.78 | L 1.69 | I 2.64 | D 3.01 | P 2.03 | H 2.6 | F 2.16 | Y 1.72 | R 2.18 | W 1.94 | Q 2.72 | A 2.02
A3: I 2.06 | E 2.69 | T 2.93 | L 1.85 | P 2.69 | Y 2.35 | S 2.74 | M 2.26 | G 2.28 | D 2.11 | F 1.87 | Q 2.46 | H 2.38 | K 2.81 | C 2.01 | V 2.43 | W 1.91
Q1: H 1.85 | I 1.7 | C 1.57 | E 1.91 | Y 3.79 | W 1.46 | K 2.17 | N 2.11 | D 2.21 | S 2.12 | T 1.95 | V 2.73 | A 2.29 | G 2.33 | M 1.81 | L 2.27 | R 1.71
